Here are results for 2 substances from IntAct's records for PubMed 11923305.

Assay [1] has as its target src_chick SRC (UniProt P00523).
The target in assay [2] is src_human SRC (UniProt P12931).
Assay [3] concerns the target src_human SRC (UniProt P12931). This is another data set of the same source.
The target of assay [4] is src_chick SRC (UniProt P00523). The source holds these as a separate data set.

Take “Receptor-type tyrosine-protein phosphatase alpha (Homo sapiens) (from UniProt P18433) S204A”: the “effect of a mutation on the interaction” value with src_chick SRC [1] and with src_human SRC [2] was “disrupting interaction” throughout.

For the substance “Receptor-type tyrosine-protein phosphatase alpha (Homo sapiens) (from UniProt P18433) S189A”, the “effect of a mutation on the interaction” value with src_human SRC [3] and in the assay with src_chick SRC [4] was “disrupting interaction” throughout.
